The source of these data is US7629440.

The target in the assay is murine GM-CSF receptor (murine) (UniProt Q00941). The assay is described as follows: cell-based or functional assay.
Sequence of UniProt Q00941 (Q00941 30-388, chain 1 of 2): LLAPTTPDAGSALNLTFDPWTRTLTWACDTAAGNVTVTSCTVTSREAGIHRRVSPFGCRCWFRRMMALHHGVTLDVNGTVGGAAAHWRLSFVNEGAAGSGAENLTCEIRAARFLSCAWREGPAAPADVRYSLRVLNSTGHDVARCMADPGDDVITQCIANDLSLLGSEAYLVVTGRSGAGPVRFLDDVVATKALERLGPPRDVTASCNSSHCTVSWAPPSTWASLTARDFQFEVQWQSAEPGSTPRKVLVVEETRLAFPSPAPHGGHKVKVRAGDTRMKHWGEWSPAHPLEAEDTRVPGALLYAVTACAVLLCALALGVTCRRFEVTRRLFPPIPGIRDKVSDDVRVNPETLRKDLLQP
Sequence of UniProt Q00941 (P26955 23-896, chain 2 of 2, further chain): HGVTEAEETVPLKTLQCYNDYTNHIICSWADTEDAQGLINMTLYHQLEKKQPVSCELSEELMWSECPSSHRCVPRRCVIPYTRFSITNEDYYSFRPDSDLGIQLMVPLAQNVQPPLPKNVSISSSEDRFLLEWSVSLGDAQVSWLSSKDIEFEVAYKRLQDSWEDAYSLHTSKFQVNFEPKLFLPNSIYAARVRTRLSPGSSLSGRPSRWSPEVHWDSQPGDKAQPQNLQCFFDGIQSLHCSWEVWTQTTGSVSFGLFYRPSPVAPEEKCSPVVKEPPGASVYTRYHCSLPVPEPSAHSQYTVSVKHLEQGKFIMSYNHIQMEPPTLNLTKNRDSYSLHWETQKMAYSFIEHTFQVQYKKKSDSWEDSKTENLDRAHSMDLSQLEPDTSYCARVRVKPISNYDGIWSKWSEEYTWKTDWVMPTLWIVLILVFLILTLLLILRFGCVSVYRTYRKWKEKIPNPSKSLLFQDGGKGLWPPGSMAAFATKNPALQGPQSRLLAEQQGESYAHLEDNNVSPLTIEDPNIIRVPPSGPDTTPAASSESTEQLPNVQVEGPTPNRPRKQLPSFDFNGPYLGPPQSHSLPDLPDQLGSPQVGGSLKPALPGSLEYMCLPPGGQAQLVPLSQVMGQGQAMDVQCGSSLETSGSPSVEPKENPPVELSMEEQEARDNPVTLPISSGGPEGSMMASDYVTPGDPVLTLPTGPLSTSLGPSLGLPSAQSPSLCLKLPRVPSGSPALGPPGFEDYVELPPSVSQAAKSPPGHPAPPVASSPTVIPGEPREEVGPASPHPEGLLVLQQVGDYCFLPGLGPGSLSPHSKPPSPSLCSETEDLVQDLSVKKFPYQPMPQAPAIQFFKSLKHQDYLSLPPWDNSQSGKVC

Consider “murine GM-CSF fused to the S. cerevisiae Gas1 GPI modification signal sequence (GPI-GM-CSF) (from UniProt P01587 18-141; P22146 470-528) (other; the values are: proliferation increase vs soluble GM-CSF)”, for which the proliferation of the GM-CSF dependent FDC-P1 cell line (Biotrak BrdU cell proliferation ELISA), 10 ng per well turned out to be 25%.
